Test results published in patent US20260022175A1 (Chugai, published 2026).

T1: human FcγRIIa R allotype extracellular domain with C-terminal His-tag (human, UniProt P12318 34-217)
T1 construct: extracellular domain; also called hFcγR IIa R
T1 sequence (looked up): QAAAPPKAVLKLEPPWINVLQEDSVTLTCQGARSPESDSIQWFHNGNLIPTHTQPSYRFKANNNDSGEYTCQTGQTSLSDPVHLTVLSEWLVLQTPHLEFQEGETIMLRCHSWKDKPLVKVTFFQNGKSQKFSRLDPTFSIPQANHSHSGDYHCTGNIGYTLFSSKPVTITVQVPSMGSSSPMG

T2: human FcγRIIa H allotype extracellular domain with C-terminal His-tag (human, UniProt P12318 34-217)
T2 construct: extracellular domain; also called hFcγR IIa H
T2 sequence (looked up): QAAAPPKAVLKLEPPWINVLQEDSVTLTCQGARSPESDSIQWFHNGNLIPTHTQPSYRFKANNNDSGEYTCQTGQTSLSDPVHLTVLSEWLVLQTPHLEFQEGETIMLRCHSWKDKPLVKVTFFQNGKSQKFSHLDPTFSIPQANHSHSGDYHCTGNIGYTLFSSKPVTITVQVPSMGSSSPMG

T3: human FcγRIIb extracellular domain with C-terminal His-tag (human, UniProt P31994 43-217)
T3 construct: extracellular domain; also called hFcγR IIb
T3 sequence (looked up): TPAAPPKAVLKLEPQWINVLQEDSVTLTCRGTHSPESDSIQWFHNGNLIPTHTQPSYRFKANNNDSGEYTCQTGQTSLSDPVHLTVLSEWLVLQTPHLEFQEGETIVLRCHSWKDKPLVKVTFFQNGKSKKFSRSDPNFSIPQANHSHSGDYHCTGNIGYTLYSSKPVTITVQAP


How the values were obtained:
[1] = biological target: T4, human FcγRIa extracellular domain with C-terminal His-tag (human, UniProt P12314 16-292); assay: SPR Biacore T200, Ab captured via Fab-lambda, pH 7.4, 25C;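 further: antibodies captured on a streptavidin chip carrying biotinylated anti-Fab-lambda, with each FcγR injected as analyte in phosphate buffer. KD fitted by 1:1 Langmuir or steady-state model depending on receptor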
T4 construct: extracellular domain; also called hFcγR Ia; hFcγRIa
T4 sequence (P12314 16-292): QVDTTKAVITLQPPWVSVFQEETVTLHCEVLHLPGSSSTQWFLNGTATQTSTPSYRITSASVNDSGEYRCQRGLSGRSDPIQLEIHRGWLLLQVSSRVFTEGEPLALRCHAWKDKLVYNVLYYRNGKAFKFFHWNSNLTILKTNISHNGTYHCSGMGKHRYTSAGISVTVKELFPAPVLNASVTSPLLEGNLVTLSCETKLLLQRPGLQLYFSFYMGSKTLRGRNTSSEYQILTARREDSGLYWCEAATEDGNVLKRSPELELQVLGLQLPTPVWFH
Method: (§1) The interaction between the generated antibodies and human FcγRs was analyzed by the following method using Biacore T200. 50 mM Na-Phosphate, 150 mM NaCl, 0.05% Tween20 (pH 7.4) was used as the running buffer, and the assay was performed at 25° C. For the sensor chips, Series S SA (GE Healthcare) chips onto which CaptureSelect Human Fab-lambda Kinetics Biotin Conjugate (Thermo Fisher Scientific) was immobilized were used. The antibodies of interest were captured onto these chips and each FcγR diluted in the running buffer was allowed to interact with them. Chips were regenerated with 10 mM Glycine-HCl (pH 1.5) and 25 mM NaOH, and assay was performed by repeatedly capturing antibodies. The dissociation constants KD (mol/L) for FcγRs of each antibody were calculated using Biacore T200 Evaluation Software 2.0, using the 1:1 Langmuir binding model for FcγRIa and FcγRIIIa and the steady state affinity model for FcγRIIa. For FcγRIIb, the binding amount of FcγRIIb per unit amount of antibody was calculated by correcting the binding amount of FcγRIIb obtained from the sensorgram obtained by the measurement with the amount of antibody captured onto the chip surface.

[2] = biological target: T1, human FcγRIIa R allotype extracellular …; assay: as above
Method: as §1

[3] = biological target: T2, human FcγRIIa H allotype extracellular …; assay: as above
Method: as §1

[4] = biological target: T5, human FcγRIIIa F allotype extracellular domain with C-terminal His-tag (human, UniProt P08637 17-208); assay: as above
T5 construct: extracellular domain; also called hFcγR IIIa F
T5 sequence (P08637 17-208): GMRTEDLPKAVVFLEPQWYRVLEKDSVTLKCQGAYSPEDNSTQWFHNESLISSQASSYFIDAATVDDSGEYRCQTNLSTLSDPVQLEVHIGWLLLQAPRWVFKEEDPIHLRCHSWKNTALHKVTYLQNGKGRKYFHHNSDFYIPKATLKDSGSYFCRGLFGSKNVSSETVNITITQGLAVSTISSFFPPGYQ
Method: as §1

[5] = biological target: T6, human FcγRIIIa V allotype extracellular domain with C-terminal His-tag (human, UniProt P08637 17-208); assay: as above
T6 construct: extracellular domain; also called hFcγR IIIa V
T6 sequence (P08637 17-208 F176V): as the sequence (P08637 17-208) above, with F160V counted along it
Method: as §1

[6] = biological target: T3, human FcγRIIb extracellular domain with …; assay: SPR; FcγRIIb at 1000 nM, bound amount per unit captured Ab
[7] = biological target: T4, human FcγRIa extracellular domain with …; assay: SPR; KD of 04H1637-G1m/04L1610-lam1 divided by KD of variant;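 further: biacore T200 SPR at 25 °C, antibodies captured on anti-Fab-lambda SA chip with receptor as analyte, running buffer pH 7.4 for FcγRs and pH 6.0 for FcRn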
Method: as §1
(§2) The interaction between the generated antibodies and human FcRn was analyzed by the following method using Biacore T200. 50 mM Na-Phosphate, 150 mM NaCl, 0.05% Tween20 (pH 6.0) was used as the running buffer, and the assay was performed at 25° C. For the sensor chip, Series S SA (GE Healthcare) chips onto which CaptureSelect Human Fab-lambda Kinetics Biotin Conjugate (Thermo Fisher Scientific) was immobilized were used. The antibodies of interest were captured onto these chips and FcRn diluted in the running buffer was allowed to interact with them. Chips were regenerated with 10 mM Glycine-HCl (pH 1.5) and 25 mM NaOH, and assay was performed by repeatedly capturing antibodies. The dissociation constant for FcRn of each antibody was calculated using the steady state model, using Biacore T200 Evaluation Software 2.0.

[8] = biological target: T1, human FcγRIIa R allotype extracellular …; assay: as above
Method: as §1, §2

[9] = biological target: T2, human FcγRIIa H allotype extracellular …; assay: as above
Method: as §1, §2

[10] = biological target: T5, human FcγRIIIa F allotype extracellular …; assay: as above
Method: as §1, §2

[11] = biological target: T6, human FcγRIIIa V allotype extracellular …; assay: as above
Method: as §1, §2

[12] = biological target: T3, human FcγRIIb extracellular domain with …; assay: SPR; binding amount divided by that of 04H1637-G1m/04L1610-lam1

Row | Binder | Kd [1] [nM] | Kd [2] [nM] | Kd [3] [nM] | Kd [4] [nM] | Kd [5] [nM] | Binding amount [6] | Relative value to KD between G1m and hFcγRs [7] | Relative value to KD between G1m and hFcγRs [8] | Relative value to KD between G1m and hFcγRs [9] | Relative value to KD between G1m and hFcγRs [10] | Relative value to KD between G1m and hFcγRs [11] | Relative binding amount [12]
1 | 04H1637-Kn125/04L1610-lam1//04H1637-Hl076/04L1610-lam1 (antibody, human IgG1, lambda, Heterodimerized antibody, Fc variant of WO 2013/002362; also called 04H1637-Kn125/04L1610-lam1//04H1637-H1076/04L1610-lam1) heavy 1: QVQLVESGGGLVKPGGSLRLSCAASGFTFSSKTMNWVRQAPGKGLEWVSSISTQSHYIYYAESVRGRFTISRDNAKNSLYLQMNSLRAEDTAVYYCARYGKREDMLWVFDYWGQGTLVTVSSASTKGPSVFPLAPSSKSTSGGTAALGCLVKDYFPEPVTVSWNSGALTSGVHTFPAVLQSSGLYSLSSVVTVPSSSLGTQTYICNVNHKPSNTKVDKKVEPKSCDKTHTCPPCPAPEYQWGPMVFLFPPKPKDTLMISRTPEVTCVVVDVSDEEPEVKFNWYVDGVEVHNAKTKPREEQYNATYRVVSVLTVLHQDWLNGKEYKCKVSNKALPAPIEKTISKAKGQPREPQVCTLPPSRDELTKNQVSLWCLVKGFYPSDIAVEWESNGQPENNYKTTPPVLDSDGSFFLYSKLTVDKSRWQQGNVFSCSVMHEALHNHYTQKSLSLSP heavy 2: QVQLVESGGGLVKPGGSLRLSCAASGFTFSSKTMNWVRQAPGKGLEWVSSISTQSHYIYYAESVRGRFTISRDNAKNSLYLQMNSLRAEDTAVYYCARYGKREDMLWVFDYWGQGTLVTVSSASTKGPSVFPLAPSSKSTSGGTAALGCLVKDYFPEPVTVSWNSGALTSGVHTFPAVLQSSGLYSLSSVVTVPSSSLGTQTYICNVNHKPSNTKVDKKVEPKSCDKTHTCPPCPAPELLGGPSVFLFPPKPKDTLMISRTPEVTCVVVDVSHEEPEVKFNWYVDGVEVHNAKTKPREEQYNSTYRVVSVLTVLHQDWLNGKEYKCKVSNDALPMPIEETISKAKGQPREPQVYTLPPSRCELTKNQVSLSCAVKGFYPSDIAVEWESNGQPENNYKTTPPVLDSDGSFFLVSKLTVDKSRWQQGNVFSCSVMHEALHNHYTQKSLSLSP light: QSALTQPPSASGSPGQSVTISCEGPSTGVGDYNWVHWYQQHPGKAPKLMIYFTSKKPSGVPDRFSGSKSGNTASLTVSGLQAEDEADYYCQTYAAPLGPMFGGGTKLTVLGQPKAAPSVTLFPPSSEELQANKATLVCLISDFYPGAVTVAWKADSSPVKAGVETTTPSKQSNNKYAASSYLSLTPEQWKSHRSYSCQVTHEGSTVEKTVAPTECS | 0.04 | 1200 | 410 | 3.4 | 1.9 | 0.007 | 1.2 | 1.6 | 3.6 | 406 | 126 | 0.9
2 | 04H1637-Kn461/04L1610-lam1//04H1637-Hl443/04L1610-lam1 (antibody, human IgG1, lambda, Heterodimerized antibody; also called 04H1637-Kn461/04L1610-lam1//04H1637-H1443/04L1610-lam1) heavy 1: QVQLVESGGGLVKPGGSLRLSCAASGFTFSSKTMNWVRQAPGKGLEWVSSISTQSHYIYYAESVRGRFTISRDNAKNSLYLQMNSLRAEDTAVYYCARYGKREDMLWVFDYWGQGTLVTVSSASTKGPSVFPLAPSSKSTSGGTAALGCLVKDYFPEPVTVSWNSGALTSGVHTFPAVLQSSGLYSLSSVVTVPSSSLGTQTYICNVNHKPSNTKVDKKVEPKSCDKTHTCPPCPAPEFQWGPMVFLFPPKPKDVLMISRTPEVTCVVVDVSDEEPEVKFNWYVDGVEVHNAKTKPREEQYNATYRVVSVLPVLHQDWLNGKEYKCKVSNDALPAPEEKTISKAKGQPREPQVCTLPPSRDELTKNQVSLWCLVKGFYPSDIAVEWESNGQPENNYKTTPPVLDSDGSFFLYSKLTVDKSRWQQGNVFSCSVMHEALHNHYTQKSLSLSP heavy 2: QVQLVESGGGLVKPGGSLRLSCAASGFTFSSKTMNWVRQAPGKGLEWVSSISTQSHYIYYAESVRGRFTISRDNAKNSLYLQMNSLRAEDTAVYYCARYGKREDMLWVFDYWGQGTLVTVSSASTKGPSVFPLAPSSKSTSGGTAALGCLVKDYFPEPVTVSWNSGALTSGVHTFPAVLQSSGLYSLSSVVTVPSSSLGTQTYICNVNHKPSNTKVDKKVEPKSCDKTHTCPPCPAPELLAGPSVFLFPPKPKDVLMISRTPEVTCVVVDVSHEEPEVKFNWYVDGVEVHNAKTKPREEQYNATYRVVSVLPVLHQDWLNGKEYKCKVSNDALPAPEEETISKAKGQPREPQVYTLPPSRCELTKNQVSLSCAVKGFYPSDIAVEWESNGQPENNYKTTPPVLDSDGSFFLVSKLTVDKSRWQQGNVFSCSVMHEALHNHYTQKSLSLSP light: QSALTQPPSASGSPGQSVTISCEGPSTGVGDYNWVHWYQQHPGKAPKLMIYFTSKKPSGVPDRFSGSKSGNTASLTVSGLQAEDEADYYCQTYAAPLGPMFGGGTKLTVLGQPKAAPSVTLFPPSSEELQANKATLVCLISDFYPGAVTVAWKADSSPVKAGVETTTPSKQSNNKYAASSYLSLTPEQWKSHRSYSCQVTHEGSTVEKTVAPTECS | 0.042 | 190 | 130 | 2.2 | 1.1 | 0.025 | 1.2 | 10.7 | 11.1 | 616 | 226 | 3.1
3 | 04H1637-Kn462/04L1610-lam1//04H1637-Hl445/04L1610-lam1 (antibody, human IgG1, lambda, Heterodimerized antibody; also called 04H1637-Kn462/04L1610-lam1//04H1637-H1445/04L1610-lam1) heavy 1: QVQLVESGGGLVKPGGSLRLSCAASGFTFSSKTMNWVRQAPGKGLEWVSSISTQSHYIYYAESVRGRFTISRDNAKNSLYLQMNSLRAEDTAVYYCARYGKREDMLWVFDYWGQGTLVTVSSASTKGPSVFPLAPSSKSTSGGTAALGCLVKDYFPEPVTVSWNSGALTSGVHTFPAVLQSSGLYSLSSVVTVPSSSLGTQTYICNVNHKPSNTKVDKKVEPKSCDKTHTCPPCPAPEFQWGPMVFLFPPKPKDVLMISRTPEVTCVVVDVSDEEPEVKFNWYVDGVEVHNAKTKPREEQYNATYRVVSVLPVLHQDWLNGKEYKCKVSNDALPAPIEKTISKAKGQPREPQVCTLPPSRDELTKNQVSLWCLVKGFYPSDIAVEWESNGQPENNYKTTPPVLDSDGSFFLYSKLTVDKSRWQQGNVFSCSVMHEALHNHYTQKSLSLSP heavy 2: QVQLVESGGGLVKPGGSLRLSCAASGFTFSSKTMNWVRQAPGKGLEWVSSISTQSHYIYYAESVRGRFTISRDNAKNSLYLQMNSLRAEDTAVYYCARYGKREDMLWVFDYWGQGTLVTVSSASTKGPSVFPLAPSSKSTSGGTAALGCLVKDYFPEPVTVSWNSGALTSGVHTFPAVLQSSGLYSLSSVVTVPSSSLGTQTYICNVNHKPSNTKVDKKVEPKSCDKTHTCPPCPAPELLAGPSVFLFPPKPKDVLMISRTPEVTCVVVDVSHEEPEVKFNWYVDGVEVHNAKTKPREEQYNATYRVVSVLPVLHQDWLNGKEYKCKVSNDALPKPDEETISKAKGQPREPQVYTLPPSRCELTKNQVSLSCAVKGFYPSDIAVEWESNGQPENNYKTTPPVLDSDGSFFLVSKLTVDKSRWQQGNVFSCSVMHEALHNHYTQKSLSLSP light: QSALTQPPSASGSPGQSVTISCEGPSTGVGDYNWVHWYQQHPGKAPKLMIYFTSKKPSGVPDRFSGSKSGNTASLTVSGLQAEDEADYYCQTYAAPLGPMFGGGTKLTVLGQPKAAPSVTLFPPSSEELQANKATLVCLISDFYPGAVTVAWKADSSPVKAGVETTTPSKQSNNKYAASSYLSLTPEQWKSHRSYSCQVTHEGSTVEKTVAPTECS | 0.076 | 110 | 39 | 3.6 | 1.8 | 0.03 | 0.6 | 18.7 | 37.5 | 382 | 131 | 3.7
